Results reported in patent publication US20240400638A1, “COMBINATION OF RELAXIN AND VASOPRESSIN ANALOGUES FOR TREATMENT OF RENAL DISORDERS OR CONDITIONS” (River 2 Renal Corp., priority 2021, published 2024).
Numbered stars: 1 amine (or outer) side, 2 acyl side, 3 side chain; on linkers, the order of the positions; unused ones are H or OH. Square brackets hold non-standard residues; d marks the D form. Side chains are listed from the residue outwards. * marks the point of attachment. TTDS = 4-[3-[2-[2-(3-aminopropoxy)ethoxy]ethoxy]propylamino]-4-oxo-butanoyl; Trp(5-Cl) = N[C@@H](Cc1c[nH]c2ccc(Cl)cc12)C(=O)O; γGlu = O=C(O)[C@H](CCC(=O)[*:2])N[*:1]; Stearoyl = CCCCCCCCCCCCCCCCCC(=O)*; Palmitoyl = CCCCCCCCCCCCCCCC(=O)*; αMeK = C[C@](N)(CCCCN)C(=O)O; AEEA = NCCOCCOCC(=O)O; Aib = CC(C)(N)C(=O)O

T1: human RXFP1 (human, UniProt Q9HBX9 1-757)
T1 sequence (looked up): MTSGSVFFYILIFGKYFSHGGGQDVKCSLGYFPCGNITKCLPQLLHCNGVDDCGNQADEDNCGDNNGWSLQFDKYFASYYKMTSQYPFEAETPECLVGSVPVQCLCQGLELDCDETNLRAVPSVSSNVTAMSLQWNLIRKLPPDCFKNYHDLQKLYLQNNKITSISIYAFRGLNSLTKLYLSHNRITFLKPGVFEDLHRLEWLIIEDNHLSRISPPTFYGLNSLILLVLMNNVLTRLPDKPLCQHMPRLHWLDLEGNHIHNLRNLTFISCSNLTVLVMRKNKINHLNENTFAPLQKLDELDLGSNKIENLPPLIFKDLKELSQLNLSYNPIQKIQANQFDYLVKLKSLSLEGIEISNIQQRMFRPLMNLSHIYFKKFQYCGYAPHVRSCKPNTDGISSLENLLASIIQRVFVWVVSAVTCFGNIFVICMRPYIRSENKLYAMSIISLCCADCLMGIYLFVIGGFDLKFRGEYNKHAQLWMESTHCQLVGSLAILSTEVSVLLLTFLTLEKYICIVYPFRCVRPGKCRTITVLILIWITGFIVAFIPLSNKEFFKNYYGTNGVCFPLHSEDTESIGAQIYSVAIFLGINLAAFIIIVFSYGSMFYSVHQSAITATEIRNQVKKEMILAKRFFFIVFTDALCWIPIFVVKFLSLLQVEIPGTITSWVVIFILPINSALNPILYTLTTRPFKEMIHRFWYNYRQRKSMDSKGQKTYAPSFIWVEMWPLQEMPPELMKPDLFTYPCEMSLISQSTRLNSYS

B1: Relaxin peptide analogue of SEQ ID NO: 5 (peptide)
peptide: Ac-LEGREKVRAK(Ac)I[Aib][Aib]EGK([AEEA-AEEA-AEEA-AEEA-γGlu-γGlu-γGlu-Palmitoyl])STWS[Aib]RKK(Ac)-NH2
SMILES: CCCCCCCCCCCCCCCC(=O)N[C@@H](CCC(=O)N[C@@H](CCC(=O)N[C@@H](CCC(=O)NCCOCCOCC(=O)NCCOCCOCC(=O)NCCOCCOCC(=O)NCCOCCOCC(=O)NCCCC[C@H](NC(=O)CNC(=O)[C@H](CCC(=O)O)NC(=O)C(C)(C)NC(=O)C(C)(C)NC(=O)[C@@H](NC(=O)[C@H](CCCCNC(C)=O)NC(=O)[C@H](C)NC(=O)[C@H](CCCNC(=N)N)NC(=O)[C@@H](NC(=O)[C@H](CCCCN)NC(=O)[C@H](CCC(=O)O)NC(=O)[C@H](CCCNC(=N)N)NC(=O)CNC(=O)[C@H](CCC(=O)O)NC(=O)[C@H](CC(C)C)NC(C)=O)C(C)C)[C@@H](C)CC)C(=O)N[C@@H](CO)C(=O)N[C@H](C(=O)N[C@@H](Cc1c[nH]c2ccccc12)C(=O)N[C@@H](CO)C(=O)NC(C)(C)C(=O)N[C@@H](CCCNC(=N)N)C(=O)N[C@@H](CCCCN)C(=O)N[C@@H](CCCCNC(C)=O)C(N)=O)[C@@H](C)O)C(=O)O)C(=O)O)C(=O)O

What follows are binders tested against T1, human RXFP1 (assay: cell-based or functional assay).
With Ac-LEGRERVRAK(Ac)I[Aib][Aib]EGK([TTDS-TTDS-TTDS-γGlu-γGlu-γGlu-Palmitoyl])STWS[Aib]RKK(Ac)-NH2 [Relaxin peptide analogue of SEQ ID NO: 67] the “EC50 (nM), OVCAR 5 cells (cAMP)” value was 0.48 nM and the “EMax, OVCAR 5 cells (cAMP)” value was 95%.
For Ac-LEGREKVRAK(Ac)I[Aib]IEGK([TTDS-TTDS-TTDS-γGlu-γGlu-γGlu-Palmitoyl])STWS[Aib]RKK(Ac)-NH2 [Relaxin peptide analogue of SEQ ID NO: 70], the “EC50 (nM), OVCAR 5 cells (cAMP)” value was 1.34 nM and the “EMax, OVCAR 5 cells (cAMP)” value was 94%.
Ac-LEGREKVRAK(Ac)I[Aib][Aib]EGK([TTDS-TTDS-TTDS-γGlu-γGlu-γGlu-Stearoyl])STFS[Aib]RKK(Ac)-NH2 [Relaxin peptide analogue of SEQ ID NO: 61] was tested, and the “EC50 (nM), OVCAR 5 cells (cAMP)” value was 0.1 nM and the “EMax, OVCAR 5 cells (cAMP)” value was 97%.
For Ac-LEGREKVRAK(Ac)I[Aib][Aib]EGK([TTDS-TTDS-TTDS-γGlu-γGlu-γGlu-Palmitoyl])SQWS[Aib]RKK(Ac)-NH2 [Relaxin peptide analogue of SEQ ID NO: 63], the “EC50 (nM), OVCAR 5 cells (cAMP)” value was 1.45 nM and the “EMax, OVCAR 5 cells (cAMP)” value was 97%.
For Ac-LEGREKVRAK(Ac)I[Aib][Aib]EGK([TTDS-TTDS-TTDS-TTDS-γGlu-γGlu-γGlu-Stearoyl])STFS[Aib]RKK(Ac)-NH2 [Relaxin peptide analogue of SEQ ID NO: 59], the “EC50 (nM), OVCAR 5 cells (cAMP)” value was 0.09 nM and the “EMax, OVCAR 5 cells (cAMP)” value was 99%.
With Ac-LEGREKVRAK(Ac)I[Aib][Aib]EGK([TTDS-TTDS-TTDS-γGlu-γGlu-γGlu-Palmitoyl])SRWS[Aib]RKK(Ac)-NH2 [Relaxin peptide analogue of SEQ ID NO: 64] the “EC50 (nM), OVCAR 5 cells (cAMP)” value was 0.52 nM and the “EMax, OVCAR 5 cells (cAMP)” value was 95%.
In the case of B1, the “EC50 (nM), OVCAR 5 cells (cAMP)” value is reported as 9.1 nM and the “EMax, OVCAR 5 cells (cAMP)” value is reported as 85%.
With Ac-LEGREKVRAK(Ac)I[Aib][Aib]EGK([TTDS-TTDS-TTDS-γGlu-γGlu-γGlu-Palmitoyl])STWS[Aib]RKK(Ac)-NH2 [Relaxin peptide analogue of SEQ ID NO: 1] the “EC50 (nM), OVCAR 5 cells (cAMP)” value was 1.5 nM and the “EMax, OVCAR 5 cells (cAMP)” value was 99%.
With Ac-LEGREKVRAK(Ac)I[Aib][Aib]EGK([TTDS-TTDS-γGlu-γGlu-γGlu-Stearoyl])STFS[Aib]RKK(Ac)-NH2 [Relaxin peptide analogue of SEQ ID NO: 60] the “EC50 (nM), OVCAR 5 cells (cAMP)” value was 0.15 nM and the “EMax, OVCAR 5 cells (cAMP)” value was 95%.
Ac-LEGREKVRAK(Ac)I[Aib][Aib]EGK([TTDS-TTDS-TTDS-TTDS-γGlu-γGlu-γGlu-Palmitoyl])STFS[αMeK]RAK(Ac)-NH2 [Relaxin peptide analogue of SEQ ID NO: 78] was tested, and the “EC50 (nM), OVCAR 5 cells (cAMP)” value was 0.18 nM and the “EMax, OVCAR 5 cells (cAMP)” value was 99%.
Ac-LEGREKVRAK(Ac)I[Aib]IEGK([TTDS-TTDS-TTDS-TTDS-γGlu-γGlu-γGlu-Palmitoyl])STWS[Aib]RKK(Ac)-NH2 [Relaxin peptide analogue of SEQ ID NO: 74] was tested, and the “EC50 (nM), OVCAR 5 cells (cAMP)” value was 0.54 nM and the “EMax, OVCAR 5 cells (cAMP)” value was 94%.
For Ac-LEGREKVRAK(Ac)I[Aib][Aib]EGK([TTDS-TTDS-TTDS-γGlu-γGlu-γGlu-Palmitoyl])SKWS[Aib]RAK-NH2 [Relaxin peptide analogue of SEQ ID NO: 73], the “EC50 (nM), OVCAR 5 cells (cAMP)” value was 0.2 nM and the “EMax, OVCAR 5 cells (cAMP)” value was 95%.
In the case of Ac-LEGREKVRAK(Ac)I[Aib][Aib]EGK([TTDS-TTDS-TTDS-γGlu-γGlu-γGlu-Palmitoyl])STWK(Ac)[Aib]RAK(Ac)-NH2 [Relaxin peptide analogue of SEQ ID NO: 66], the “EC50 (nM), OVCAR 5 cells (cAMP)” value is reported as 6.31 nM and the “EMax, OVCAR 5 cells (cAMP)” value is reported as 93%.
Ac-LEGREKVRAK(Ac)I[Aib][Aib]EGK([TTDS-TTDS-TTDS-γGlu-γGlu-γGlu-Palmitoyl])STWS[Aib]RAK-NH2 [Relaxin peptide analogue of SEQ ID NO: 71] was tested, and the “EC50 (nM), OVCAR 5 cells (cAMP)” value was 0.36 nM and the “EMax, OVCAR 5 cells (cAMP)” value was 95%.
Ac-LEGREKVRAK(Ac)I[Aib][Aib]EGK([TTDS-TTDS-TTDS-γGlu-γGlu-γGlu-Palmitoyl])SKFS[Aib]RKK(Ac)-NH2 [Relaxin peptide analogue of SEQ ID NO: 79] was tested, and the “EC50 (nM), OVCAR 5 cells (cAMP)” value was 0.45 nM and the “EMax, OVCAR 5 cells (cAMP)” value was 95%.
In the case of Ac-LEGREKVRK(Ac)QI[Aib][Aib]EGK([TTDS-TTDS-TTDS-γGlu-γGlu-γGlu-Palmitoyl])STWS[Aib]RKK(Ac)-NH2 [Relaxin peptide analogue of SEQ ID NO: 65], the “EC50 (nM), OVCAR 5 cells (cAMP)” value is reported as 1.19 nM and the “EMax, OVCAR 5 cells (cAMP)” value is reported as 95%.
In the case of Ac-LEGRERVRAK(Ac)I[Aib][Aib]EGK([TTDS-TTDS-TTDS-TTDS-γGlu-γGlu-γGlu-Palmitoyl])STWS[Aib]RRK(Ac)-NH2 [Relaxin peptide analogue of SEQ ID NO: 75], the “EC50 (nM), OVCAR 5 cells (cAMP)” value is reported as 0.19 nM and the “EMax, OVCAR 5 cells (cAMP)” value is reported as 97%.
With Ac-LEGREKVRAK(Ac)I[Aib][Aib]EGK([TTDS-TTDS-TTDS-γGlu-γGlu-γGlu-Palmitoyl])STF[Aib]RRAK(Ac)-NH2 [Relaxin peptide analogue of SEQ ID NO: 72] the “EC50 (nM), OVCAR 5 cells (cAMP)” value was 0.56 nM and the “EMax, OVCAR 5 cells (cAMP)” value was 91%.
With Ac-LEGRERVRAK(Ac)I[Aib][Aib]EGK([TTDS-TTDS-TTDS-TTDS-γGlu-γGlu-γGlu-Palmitoyl])STFS[Aib]RRK(Ac)-NH2 [Relaxin peptide analogue of SEQ ID NO: 77] the “EC50 (nM), OVCAR 5 cells (cAMP)” value was 0.11 nM and the “EMax, OVCAR 5 cells (cAMP)” value was 98%.
Ac-LEGREKVRAK(Ac)I[Aib][Aib]EGK([TTDS-TTDS-TTDS-γGlu-γGlu-γGlu-Palmitoyl])STWS[Aib]RK(Ac)K-NH2 [Relaxin peptide analogue of SEQ ID NO: 68] was tested, and the “EC50 (nM), OVCAR 5 cells (cAMP)” value was 0.88 nM and the “EMax, OVCAR 5 cells (cAMP)” value was 98%.
In the case of Ac-LEGREKVRAK(Ac)I[Aib][Aib]EGK([TTDS-TTDS-TTDS-γGlu-γGlu-γGlu-Stearoyl])STFS[αMeK]RAK(Ac)-NH2 [Relaxin peptide analogue of SEQ ID NO: 7], the “EC50 (nM), OVCAR 5 cells (cAMP)” value is reported as 0.07 nM and the “EMax, OVCAR 5 cells (cAMP)” value is reported as 95%.
For Ac-LEGRERVRAK(Ac)I[Aib][Aib]EGK([TTDS-TTDS-TTDS-γGlu-γGlu-γGlu-Palmitoyl])ST[Trp(5-Cl)]S[Aib]RRK(Ac)-NH2 [Relaxin peptide analogue of SEQ ID NO: 80], the “EC50 (nM), OVCAR 5 cells (cAMP)” value was 0.63 nM and the “EMax, OVCAR 5 cells (cAMP)” value was 93%.
Ac-K(Ac)EGREKVRAK(Ac)I[Aib][Aib]EGK([TTDS-TTDS-TTDS-γGlu-γGlu-γGlu-Palmitoyl])STFS[αMeK]RAK(Ac)-NH2 [Relaxin peptide analogue of SEQ ID NO: 81] was tested, and the “EC50 (nM), OVCAR 5 cells (cAMP)” value was 0.16 nM and the “EMax, OVCAR 5 cells (cAMP)” value was 98%.
Ac-LEGRERVRAK(Ac)I[Aib][Aib]EGK([TTDS-TTDS-TTDS-γGlu-γGlu-γGlu-Palmitoyl])STFS[Aib]RRK(Ac)-NH2 [Relaxin peptide analogue of SEQ ID NO: 76] was tested, and the “EC50 (nM), OVCAR 5 cells (cAMP)” value was 0.18 nM and the “EMax, OVCAR 5 cells (cAMP)” value was 96%.
In the case of Ac-LEGREKVRAK(Ac)I[Aib][Aib]EGK([TTDS-TTDS-γGlu-γGlu-γGlu-Stearoyl])STWS[Aib]RKK(Ac)-NH2 [Relaxin peptide analogue of SEQ ID NO: 6], the “EC50 (nM), OVCAR 5 cells (cAMP)” value is reported as 0.27 nM and the “EMax, OVCAR 5 cells (cAMP)” value is reported as 95%.
Ac-LEGREKVRAK(Ac)I[Aib][Aib]EGK([TTDS-TTDS-TTDS-γGlu-γGlu-γGlu-γGlu-Palmitoyl])STWS[Aib]RKK(Ac)-NH2 [Relaxin peptide analogue of SEQ ID NO: 62] was tested, and the “EC50 (nM), OVCAR 5 cells (cAMP)” value was 0.6 nM and the “EMax, OVCAR 5 cells (cAMP)” value was 98%.
With Ac-LEGREKVRAK(Ac)I[Aib][Aib]EGK([TTDS-TTDS-TTDS-γGlu-γGlu-γGlu-Palmitoyl])STWS[Aib]RK(Ac)R-NH2 [Relaxin peptide analogue of SEQ ID NO: 69] the “EC50 (nM), OVCAR 5 cells (cAMP)” value was 0.78 nM and the “EMax, OVCAR 5 cells (cAMP)” value was 97%.
